pKd: −log10 of the molar value.
Target: alpha-thrombin (Homo sapiens) (UniProt P00734+P00734)
Assay: SPR
Conditions: apparent
[1] = DNA segments joined 3'-3' through glycerol phosphodiester linker L2 (both segments given 5'-3'), solution competition vs immobilized consensus …, same buffer, 25 C
[2] = DNA segments joined 3'-3' by a single phosphodiester (inverted polarity; second segment given 5'-3'), solution competition vs immobilized consensus aptamer, same buffer, 25 C

## TGGTTGGTGGTTGG [Compound 7]
DNA segments joined 5'-5' through hexaethylene glycol phosphodiester linker L1 (both segments given 5'-3'), solution competition vs immobilized consensus aptamer, same buffer, 25 C
  pKd: 7.64

## GGTTGGTTGGTTGGTT [Compound 9]
[1]
  pKd: 7.72

## GGTTGGTTGGGTTGGTT [Compound 3]
[2]
  pKd: 7.96

## GGTTGGGGTTGG [Compound 11 (uni-directional)]
Hexaethylene glycol phosphodiester linker L1 between 3' end of first and 5' end of second segment (normal polarity), solution competition vs immobilized consensus aptamer, same buffer, 25 C
  pKd: 7.54

## GGTTGGTGGTTGGT [Compound 8]
[1]
  pKd: 7.54

## GGTTGGTGGGTTGGT [Compound 1]
[2]
  pKd: 6.65

## GGTTGGTTGGTTGGTT [Compound 6]
DNA segments joined 3'-3' through hexaethylene glycol phosphodiester linker L1 (both segments given 5'-3'), solution competition vs immobilized consensus aptamer, same buffer, 25 C
  pKd: 8.00

## GGTTGGTGGTTGGT [Compound 5]
DNA segments joined 3'-3' through hexaethylene glycol phosphodiester linker L1 (both segments given 5'-3'), solution competition vs immobilized consensus aptamer, 80 nM thrombin, 20 mM Tris-acetate, 140 mM NaCl, 5 mM KCl, 1 mM CaCl2, 1 mM MgCl2, pH 7.4 …
  pKd: 8.05

## GGTTGGTTGGTTGGTT [Compound 2]
[2]
  pKd: 6.51

## TTGGTTGGTTGGTTGG [Compound 4]
DNA segments joined 5'-5' by a single phosphodiester (inverted polarity; both segments given 5'-3'), solution competition vs immobilized consensus aptamer, same buffer, 25 C
  pKd: 7.60

Source: US5668265
